For ten molecules, Km, kcat and kcat/Km results are on record in paper PMC11659886, “Bioinformatics-Facilitated Identification of Novel Bacterial Sulfoglycosidases That Hydrolyze 6-Sulfo-N-acetylglucosamine” (ACS Bio & Med Chem Au, 2024).

The test system of data set [1] is T1, CC(=O)N[C@H]1[C@H](Oc2ccc3c(C)cc(=O)oc3c2)O[C@H](COS(=O)(=O)O)[C@@H](O)[C@@H]1O.
T1 construct: residues 22-546, His6-tagged (pET23-Bt4394(22-546)-6His), expressed in E. coli BL21(DE3)
Put plainly: fluorometric release of 4-methylumbelliferone, Michaelis-Menten fit. In kind it is biochemical, Bacteroides thetaiotaomicron. The conditions noted are these: pH 5.5, 25 °C, 25 mM Bis-tris propane, 25 mM citrate, 300 mM NaCl. The source says: (§1) fluorometric release of 4-methylumbelliferone, Michaelis-Menten fit on Bt4394

In data set [2] the test system is CC(=O)N[C@H]1[C@H](Oc2ccc3c(C)cc(=O)oc3c2)O[C@H](CO)[C@@H](O)[C@@H]1O. The description is as above. The class given is biochemical, Prevotella sp. CAG:5226. The conditions noted are these: pH 6.0, 25 °C, 25 mM Bis-tris propane, 25 mM citrate, 300 mM NaCl. The source says: (§2) fluorometric release of 4-methylumbelliferone, Michaelis-Menten fit on WG enzyme
The subject of data set [3] is CC(=O)N[C@H]1[C@H](Oc2ccc3c(C)cc(=O)oc3c2)O[C@H](COS(=O)(=O)O)[C@@H](O)[C@@H]1O. The data set is described as above. In kind it is biochemical, Prevotella sp. CAG:5226. To be noted: pH 6.0, 25 °C, 25 mM Bis-tris propane, 25 mM citrate, 300 mM NaCl.
Text: as §2

The test system is the same in data set [4]. The data set is described as follows: purified protein. The conditions noted are these: pH 6.0, 25 °C, 25 mM Bis-tris propane, 25 mM citrate, 300 mM NaCl.
Data set [5] deals with CC(=O)N[C@H]1[C@H](Oc2ccc3c(C)cc(=O)oc3c2)O[C@H](CO)[C@@H](O)[C@@H]1O. The data set is described as follows: purified protein. To be noted: pH 6.0, 25 °C, 25 mM Bis-tris propane, 25 mM citrate, 300 mM NaCl.
Substrate in data set [6]: CC(=O)N[C@H]1[C@H](Oc2ccc3c(C)cc(=O)oc3c2)O[C@H](CO)[C@@H](O)[C@@H]1O
The data set is described as follows: fluorometric release of 4-methylumbelliferone, Michaelis-Menten fit. The conditions noted are these: pH 5.5, 25 °C, 25 mM Bis-tris propane, 25 mM citrate, 300 mM NaCl. In kind it is biochemical, Bacteroides thetaiotaomicron.
Text: as §1

Substrate in data set [7]: CC(=O)N[C@H]1[C@H](Oc2ccc3c(C)cc(=O)oc3c2)O[C@H](COS(=O)(=O)O)[C@@H](O)[C@@H]1O
The data set is described as above. In kind it is biochemical, Bacteroides thetaiotaomicron. To be noted: pH 5.5, 25 °C, 25 mM Bis-tris propane, 25 mM citrate, 300 mM NaCl.
Text: as §1

As to “Bt4394 (Bacteroides thetaiotaomicron VPI-5482; I432G/Q431W)”, in data set [1], the Km came out at 194 ± 16 µM, the kcat worked out at 12 ± 0.3 s⁻¹ and the kcat/Km is 60000 ± 20000 M⁻¹ s⁻¹.
The like results for “Bt4394 (Bacteroides thetaiotaomicron VPI-5482; I432G/Q431Y)” were, in that order, 546 ± 37 µM, 31.6 ± 0.7 s⁻¹ and 60000 ± 20000 M⁻¹ s⁻¹.
For the molecule WG enzyme (Prevotella sp. CAG:5226), in data set [2], the Michaelis-Menten constant (Km) was 2706 ± 344 µM, the catalytic constant (kcat) was 11.6 ± 0.5 s⁻¹ and the kcat/Km was 4000 ± 2000 M⁻¹ s⁻¹. In data set [3], the Km came to 5.1 ± 0.3 µM, the kcat came to 39.9 ± 0.6 s⁻¹ and the specificity constant (kcat/Km) came to 8e+06 ± 2e+06 M⁻¹ s⁻¹.
For the molecule “WG enzyme (Prevotella sp. CAG:5226; N423D)”, in data set [4], the Km was 56 ± 6 µM, the kcat was determined as 69 ± 4 s⁻¹ and the kcat/Km amounted to 1.2e+06 ± 700000 M⁻¹ s⁻¹.
Turning to “WG enzyme (Prevotella sp. CAG:5226; R424A)”, in data set [4], the Michaelis constant (Km) was found to be 47 ± 6 µM, the kcat was determined as 62 ± 2 s⁻¹ and the specificity constant (kcat/Km) stood at 1.3e+06 ± 300000 M⁻¹ s⁻¹.
On to “WG enzyme (Prevotella sp. CAG:5226; W417A)”, for which, in data set [4], the Km was 17 ± 2 µM, the kcat was 45 ± 1 s⁻¹ and the kcat/Km amounted to 2.6e+06 ± 300000 M⁻¹ s⁻¹.
As for “YG enzyme (Alloprevotella sp. oral taxon 473 str. F0040)”, in data set [5], the Km stood at 2209 ± 355 µM, the kcat came out at 11.7 ± 0.7 s⁻¹ and the kcat/Km worked out at 5000 ± 2000 M⁻¹ s⁻¹. Moreover, in data set [4], the Km worked out at 12 ± 1 µM, the catalytic constant (kcat) was found to be 76 ± 2 s⁻¹ and the kcat/Km came out at 6e+06 ± 2e+06 M⁻¹ s⁻¹.
Take “YG enzyme (Alloprevotella sp. oral taxon 473 str. F0040; N445D)”: in data set [4], the Km amounted to 130 ± 14 µM, the kcat was 98 ± 3 s⁻¹ and the kcat/Km turned out to be 800000 ± 200000 M⁻¹ s⁻¹.
“YG enzyme (Alloprevotella sp. oral taxon 473 str. F0040; R446A)”: in data set [4], the Km came out at 90 ± 9 µM, the kcat was 97 ± 3 s⁻¹ and the specificity constant (kcat/Km) amounted to 1.1e+06 ± 300000 M⁻¹ s⁻¹.

B1: Bt4394 (Bacteroides thetaiotaomicron VPI-5482) (protein)
chain: QEIALTPQPAHLTVKDGRFEFGNQLKAKVTPYQGDSIRMVFESFKKELQEATGIKVSSTQKEAKARIILDLNPQLPAEAYKLNVSKKQVRIEASRPAGFYYALQTLKQLMPRNVMAGVATSDHSQWSLPSVEIEDAPRFEWRGFMLDEGRHFFGKDEIKRVIDMMAIYKMNRFHWHLTEDQGWRIEIKKYPKLTETGAWRNSKVLAYGDVKPDGERYGGFYTQKDIKEIVAYAKKKFIEIIPEIDIPGHSQAAVAAYPEFLACDPRDKHEVWLQQGISTDVINVANPKAMQFAKEVIDELTELFPFNYIHLGGDECPTRKWQKNDECKKLLSEIGSSNFRDLQIYFYKQLKDYIATKPADQQRQLIFWNEVLHGNTSILGNDITIMAWIGANAAAKQAAKQGMNTILSPQIPYYINRKQSKLPTEPMSQGHGTETVEAVYNYQPLKDVDAALQPYYKGVQANFWTEWVTEPSVLEYLMLPRLAAVAEAGWTPQEKRNYEDFKERIRKDAELYDLKGWNYGKHIMK
notes: residues 22-546, His6-tagged (pET23-Bt4394(22-546)-6His), expressed in E. coli BL21(DE3)
With B1, in data set [6], the Km came out at 2183 ± 189 µM, the kcat came out at 2.9 ± 0.1 s⁻¹ and the kcat/Km amounted to 1300 ± 500 M⁻¹ s⁻¹. In data set [7], the Michaelis constant (Km) is 39 ± 4 µM, the kcat was found to be 25.8 ± 0.7 s⁻¹ and the catalytic efficiency (kcat/Km) is 700000 ± 200000 M⁻¹ s⁻¹.

The Km is the concentration of substrate that gives half-maximal velocity. As a reminder, the kcat is the maximal rate divided by the concentration of active sites. The term kcat/Km denotes the second-order rate constant that governs catalysis at low substrate concentration.
